# Source: article PMC5422877
# How the values were obtained:
# [1] = biological target: MqsA-CHis;MqsR (Pseudomonas putida KT2440;Pseudomonas putida KT2440) (UniProt Q88F94+Q88F93); assay: EMSA; conditions: 10 mM HEPES pH 7.3, 20 mM KCl, 1 mM MgCl2, 5% glycerol, NP-40, poly dI-dC, 0.05 pmol biotin probe in 20 ul, 25 C, 1 h
# [2] = biological target: T1, MqsA-CHis (Pseudomonas putida KT2440) (UniProt Q88F94); assay: EMSA; conditions: 10 mM HEPES pH 7.3, 20 mM KCl, 1 mM MgCl2, 5% glycerol, NP-40, poly dI-dC, 0.05 pmol biotin probe in 20 ul, 25 C, 1 h
# T1 sequence: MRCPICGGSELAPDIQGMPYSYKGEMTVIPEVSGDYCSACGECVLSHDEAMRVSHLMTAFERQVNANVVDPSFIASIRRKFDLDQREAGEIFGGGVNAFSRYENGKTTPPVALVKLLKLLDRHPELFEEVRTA
sequence,measurement,setting,value
CTATTAGCCAAATTTAACCTGGAAGGTTAATTTCTCATGGAAAAGAGAATGCCTCATTGCCCGCTGGAGCGGGTAAAAGCCCTGGCTGCGGCAAGGCGAATCCGCCCTACGGGTGCTGCATTGAAAGGCG (double strand) [PmqsRA],binding,[1],no binding
same,binding,[2],binds
